# Test results from the supplement of paper PMC7877785.
# ± gives the uncertainty stated by the source.
# Test: self-splicing fitness, log relative to wild type (ln ratio); higher = more splicing; Tetrahymena group I intron in knt gene, E. coli kanamycin selection, DiMSum; sequences stand for … in CUCUCU…GGAGGGAAAAGUUAUCAGGCAUGCACCUGGUAGCUAGUCUUUAAACCAAUAGAUUGCAUCGGUUUAAAAGGCAAGACCGUCAAAUUGCGGGAAAGGGGUCAACAGCCGUUCAGUACCAAGUCUCAGGGGAAACUUUGAGAUGGCCUUGCAAAGGGUAUGGUAAUAAGCUGACGGACAUGGUCCUAACCACGCAGCCAAGUCCUAAGUCAACAGAUCUUCUGUUGAUAUGGAUGCAGUUCACAGACUAAAUGUCGGUCGGGGAAGAUGUAUUCUUCUCAUAAGAUAUAGUCGGACCUCUCCUUAAUGGGAGCUAGCGGAUGAAGUGAUGCAACACUGGAGCCGCUGGGAACUAAUUUGUAUGCGAAAGUAUAUUGAUUAGUUUUGGAGUACUCGUGGUCG
# Procedure, shortened: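 Colonies from six replicate transformations of E. coli BL21(DE3) were pooled and amplicon-sequenced on an Illumina HiSeq 2500. The library placed an intron with all eight P1ex-region nucleotides randomised inside the knt kanamycin-resistance gene on pET-22b(+), and cells grew overnight at 37°C or 30°C on LB agar with or without 25 μg/mL kanamycin (plus 100 μg/mL carbenicillin, 50 μM IPTG, 0.2% rhamnose). Fitness is the DiMSum error-weighted combination of wild-type-normalised replicate fold changes, kanamycin versus none.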
Sequence,self-splicing fitness (ln) (30 °C),self-splicing fitness (ln) (37 °C)
GGAAAGCAAUAUUACGCGCG,-0.394 ± 0.08,-0.275 ± 0.12
GGAAAGCAAUAUUACGCGUG,-0.941 ± 0.054,-0.486 ± 0.071
GGAAAGCAAUAUUACGGCAU,-1.03 ± 0.13,-0.672 ± 0.15
GGAAAGCAAUAUUACGGGAC,-2.53 ± 0.1,-1.18 ± 0.11
GGAAAGCAAUAUUACGGGUU,-2.99 ± 0.13,-0.727 ± 0.11
GGAAAGCAAUAUUACGGUUG,–,-1.2 ± 0.26
GGAAAGCAAUAUUACGGUUU,-1.02 ± 0.061,-0.46 ± 0.082
GGAAAGCAAUAUUACGUAGA,-0.977 ± 0.1,-1.4 ± 0.17
GGAAAGCAAUAUUACGUAUG,-2.27 ± 0.1,-2.04 ± 0.15
GGAAAGCAAUAUUACGUCGC,-0.897 ± 0.17,-0.926 ± 0.2
GGAAAGCAAUAUUACGUGGC,-2.85 ± 0.38,-2.46 ± 0.34
GGAAAGCAAUAUUACGUGGG,-3.72 ± 0.19,-1.47 ± 0.11
GGAAAGCAAUAUUACGUUCA,0.00884 ± 0.082,0.0862 ± 0.13
GGAAAGCAAUAUUACGUUCG,-0.612 ± 0.097,-0.624 ± 0.14
GGAAAGCAAUAUUACGUUCU,-3.94 ± 0.21,-3.07 ± 0.23
GGACAGCAAUAUUACGAAGG,-3.1 ± 0.24,-2.38 ± 0.39
GGACAGCAAUAUUACGACAU,-0.378 ± 0.012,-0.0143 ± 0.032
GGACAGCAAUAUUACGAGAA,-2.45 ± 0.36,-1.54 ± 0.25
GGACAGCAAUAUUACGAGAG,-3.81 ± 0.18,-2.09 ± 0.11
GGACAGCAAUAUUACGAGCA,-0.424 ± 0.47,-0.637 ± 0.4
GGACAGCAAUAUUACGAGCG,-0.482 ± 0.081,0.0554 ± 0.12
GGACAGCAAUAUUACGAUGG,-2.41 ± 0.1,-2.05 ± 0.13

Sequence,self-splicing fitness (ln) (30 °C),self-splicing fitness (ln) (37 °C)
GGACAGCAAUAUUACGAUUG,-1.09 ± 0.12,-1.15 ± 0.19
GGACAGCAAUAUUACGCCAA,-0.506 ± 0.14,-1.24 ± 0.23
GGACAGCAAUAUUACGCCUA,-0.825 ± 0.11,-0.478 ± 0.11
GGACAGCAAUAUUACGCGAA,-1.07 ± 0.08,-0.612 ± 0.094
GGACAGCAAUAUUACGGACC,-1.35 ± 0.19,-1.02 ± 0.23
GGACAGCAAUAUUACGGCCG,-0.0795 ± 0.14,-0.000523 ± 0.19
GGACAGCAAUAUUACGGGCG,-0.664 ± 0.075,-0.0669 ± 0.09
GGACAGCAAUAUUACGGUCU,-3.84 ± 0.24,-1.18 ± 0.2
GGACAGCAAUAUUACGUCGG,-0.852 ± 0.099,-0.674 ± 0.14
GGACAGCAAUAUUACGUGAG,0.177 ± 0.058,-0.254 ± 0.062
GGACAGCAAUAUUACGUGCG,-0.326 ± 0.064,0.365 ± 0.087
GGACAGCAAUAUUACGUUCA,-0.478 ± 0.086,-0.434 ± 0.1
GGACAGCAAUAUUACGUUUC,-3.16 ± 0.28,-1.82 ± 0.32
GGAGAGCAAUAUUACGAGCA,-1.17 ± 0.35,-1.86 ± 0.34
GGAGAGCAAUAUUACGAGUC,-3.63 ± 0.35,–
GGAGAGCAAUAUUACGAUAA,–,-0.957 ± 0.43
GGAGAGCAAUAUUACGCAUC,-3.08 ± 0.28,-2.85 ± 0.43
GGAGAGCAAUAUUACGCGUA,-2.02 ± 0.37,-1.42 ± 0.27
GGAGAGCAAUAUUACGGAAG,-2.47 ± 0.32,-0.843 ± 0.41
GGAGAGCAAUAUUACGGCAU,-2.03 ± 0.22,0.206 ± 0.22
GGAGAGCAAUAUUACGGCCG,-3.74 ± 0.42,-2.16 ± 0.42
